Experimental findings from paper PMC10647799 are described below.

Experiment [1] has as its target Asterias forbesii ferritin (AfFer) (Asterias forbesii). Put plainly: native gel or EMSA; native-PAGE and SDS-PAGE of purified AfFer; subunits to the 24-mer cage.
Experiment [2] shares this target. Put plainly: crystal structure; hanging drop vapour diffusion, 20 °C, 12.0 µM ferritin in 5.0 mM Tris-HCl; crystals with body-centered tetragonal (BCT) lattice; subunits in the 24-mer cage and cage to cage contacts.

For the substance “Asterias forbesii ferritin (AfFer) (natural protein)”, the stoichiometry N in experiment [1] and in experiment [2] was 24 throughout.

Usually stoichiometry N stands for the number of molecules, sites or subunits per partner or assembly.
